The test addresses CD20 antigen on CD20 positive Jeko-1 cells (human) (UniProt P11836). In words: flow cytometry on CD20+ Jeko-1 cells, secondary staining with anti-Biotin APC. A general note: In flow cytometry, cells or beads pass a laser one at a time.
Sequence of UniProt P11836 (P11836 whole entry): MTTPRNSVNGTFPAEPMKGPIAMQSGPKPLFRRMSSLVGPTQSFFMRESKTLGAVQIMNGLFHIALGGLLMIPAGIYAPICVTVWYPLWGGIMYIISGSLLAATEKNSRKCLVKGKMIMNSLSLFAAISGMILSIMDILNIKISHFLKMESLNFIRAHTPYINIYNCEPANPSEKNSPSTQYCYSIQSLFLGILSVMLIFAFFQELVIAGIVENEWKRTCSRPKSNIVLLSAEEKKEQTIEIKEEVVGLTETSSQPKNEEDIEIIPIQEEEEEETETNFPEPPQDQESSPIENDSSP

Consider “biotin-crosslinker conjugated anti-CD20 FAb (Rtx Fab MS2)”, for which the lowest concentration at which binding was detected is 0.1 µg/mL.

For the origin of these results see US20210275586A1.
